Data: article PMC5992322 (Cell, 2017)
Blank lines part the entries; values can stand above or below the binder they belong to.

B1: Nup192(2-960) (domain or fragment, S. cerevisiae, UniProt P47054 2-960, looked up)
chain: KWSAIPFQTLYRSIESGEFDFDLFKEVLPDLQNLNLNTDKLKNNASRSQLEKGEIELSDGSTFKVNQEFIFEAISLSDELNLDEIVACELILSGDTTANNGKVQYFLRRQYILQIVSFIVNCFHEDTELYQELIKNGALVSNILSAFKFIHTQLSEIKQQINKAQILENYNALFQQNIKFRRDFLLREYDILSQILYGLVDKGAIMKNKDFILSLLHHVSELDSNDFFIIYYTPAFFHLFASLRVLPDADVKLLHSQFMKDLKDDSIYTKPVKVALIFIFFAYFIGWCKEDPKRRADTMDFKTDVDEPMTSAVELGAIEQILIFAADTSIVEQDKSMELFYDIRSLLERHIPRLIPKQLLDDEKIFSQTTNSTYNPASATDNMSGRGLWNPSYPGMMSTTGTARLNSMPNNVNEYSYTTIVLSDQTQEFFLSSFDDVLQTIITDCAFLLTKIKDAEEDSLLSGEDLTLDDISLKADLERFFLSIYFFYASRPEYSCTFWSDKESNAYGFIEWCSRCNDNLMRSCFYLMVSSLSFGPENALNVYHYFGENSSISWKNIAQCLSDYTKKISNFNSSLHKRQQFSESTHNDIDSTAVALEEGLNEEAVIFLSSLLTLVGSVTYQVDEDVKSSLSKVFSDVLFEFTKINTPLVGAAFKVISNLVPKLESSRTKFWSFLDSLIFKDSSLNYSSESYRNAFTNVLTKYSDVLGFLQLFHNLISIHSRENNSEYMVFGKLAFPTRLGQGYRKVGIWPYFDYIFNDILAHVDQIVDIRNKRAVQLPILKIIYTGLCSFDYSVILNSIPAAANLDALVDCENFFNYVQECPAIPIFNYIFTEKIYKSIFNVVDVGVDQLSIELEGGKNQAELLQLAVKIINKVLDYQETYVEELFPIVKKHGKTDYFLPKNYSLHGLRSFYDAIFFNIPLVAHLGLYVGVDDQILATNSLRILAKLSERSNGSVASLS

What was measured:
His6-Avitag-MBP-Nup116 = His6-Avitag-MBP-Nup116 (S. cerevisiae, UniProt Q02630 1-1113, biotin on the Avitag); experiment: BLI
Nup192(2-960) = biological target: B1; experiment: BLI
[1] = biological target: Nup84-Nup133(521-1157) complex (S. cerevisiae, UniProt P52891 1-726; P36161 521-1157); experiment: pull-down
Sequence of Nup84-Nup133(521-1157) complex (P52891 whole entry, chain 1 of 2): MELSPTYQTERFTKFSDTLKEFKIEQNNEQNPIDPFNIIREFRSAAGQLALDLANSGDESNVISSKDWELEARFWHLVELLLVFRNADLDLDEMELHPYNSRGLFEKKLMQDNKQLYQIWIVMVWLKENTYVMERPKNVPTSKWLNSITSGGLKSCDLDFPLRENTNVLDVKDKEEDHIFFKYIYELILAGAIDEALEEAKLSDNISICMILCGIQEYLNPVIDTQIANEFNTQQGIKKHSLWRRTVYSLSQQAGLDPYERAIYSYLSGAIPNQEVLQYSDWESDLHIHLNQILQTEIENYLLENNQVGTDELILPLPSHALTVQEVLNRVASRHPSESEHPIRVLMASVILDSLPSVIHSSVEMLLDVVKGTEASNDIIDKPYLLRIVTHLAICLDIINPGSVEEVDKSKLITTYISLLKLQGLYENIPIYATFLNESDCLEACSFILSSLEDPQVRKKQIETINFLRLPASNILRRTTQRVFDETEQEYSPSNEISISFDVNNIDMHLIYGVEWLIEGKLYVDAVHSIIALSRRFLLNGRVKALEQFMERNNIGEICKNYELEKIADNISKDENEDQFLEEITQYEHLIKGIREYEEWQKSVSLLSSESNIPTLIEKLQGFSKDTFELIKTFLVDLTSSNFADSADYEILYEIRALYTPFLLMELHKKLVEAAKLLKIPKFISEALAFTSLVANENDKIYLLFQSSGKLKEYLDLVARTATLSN
Sequence of Nup84-Nup133(521-1157) complex (P36161 521-1157, chain 2 of 2): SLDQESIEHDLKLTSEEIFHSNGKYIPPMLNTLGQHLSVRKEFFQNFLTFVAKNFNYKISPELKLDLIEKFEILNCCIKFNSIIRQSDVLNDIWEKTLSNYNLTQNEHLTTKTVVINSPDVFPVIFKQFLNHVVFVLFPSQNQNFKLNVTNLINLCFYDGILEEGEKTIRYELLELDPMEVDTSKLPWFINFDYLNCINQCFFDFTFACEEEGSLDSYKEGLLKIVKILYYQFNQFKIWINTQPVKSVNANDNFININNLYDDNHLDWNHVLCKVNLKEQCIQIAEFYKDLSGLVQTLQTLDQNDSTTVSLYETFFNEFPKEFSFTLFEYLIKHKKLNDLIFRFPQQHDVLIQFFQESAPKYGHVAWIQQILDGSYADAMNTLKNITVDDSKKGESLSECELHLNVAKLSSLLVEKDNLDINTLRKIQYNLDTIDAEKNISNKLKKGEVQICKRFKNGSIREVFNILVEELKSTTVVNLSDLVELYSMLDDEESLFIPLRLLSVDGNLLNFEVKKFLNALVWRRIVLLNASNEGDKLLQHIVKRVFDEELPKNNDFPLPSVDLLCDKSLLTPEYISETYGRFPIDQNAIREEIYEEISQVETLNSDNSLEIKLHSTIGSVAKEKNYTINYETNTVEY

Binder: B1
- KD of the dominant of the two binding modes (His6-Avitag-MBP-Nup116): 0.5 µM
- fold lower KD than with the Nup116 variant lacking the GLFG-repeats (His6-Avitag-MBP-Nup116): ~15 fold

B2: His6-Avitag-MBP-Nup116(718-1113) (domain or fragment, S. cerevisiae, UniProt Q02630 718-1113, looked up)
chain: SQSMAQSQNALQQQQQQQRLQIQNNNPYGTNELFSKATVTNTVSYPIQPSATKIKADERKKASLTNAYKMIPKTLFTAKLKTNNSVMDKAQIKVDPKLSISIDKKNNQIAISNQQEENLDESILKASELLFNPDKRSFKNLINNRKMLIASEEKNNGSQNNDMNFKSKSEEQETILGKPKMDEKETANGGERMVLSSKNDGEDSATKHHSRNMDEENKENVADLQKQEYSEDDKKAVFADVAEKDASFINENYYISPSLDTLSSYSLLQLRKVPHLVVGHKSYGKIEFLEPVDLAGIPLTSLGGVIITFEPKTCIIYANLPNRPKRGEGINVRARITCFNCYPVDKSTRKPIKDPNHQLVKRHIERLKKNPNSKFESYDADSGTYVFIVNHAAEQT
modifications: biotin on the Avitag
- binding result (Nup192(2-960)): binds

B3: ScKap95 (natural protein, S. cerevisiae, UniProt Q06142 1-861, looked up)
chain: MSTAEFAQLLENSILSPDQNIRLTSETQLKKLSNDNFLQFAGLSSQVLIDENTKLEGRILAALTLKNELVSKDSVKTQQFAQRWITQVSPEAKNQIKTNALTALVSIEPRIANAAAQLIAAIADIELPHGAWPELMKIMVDNTGAEQPENVKRASLLALGYMCESADPQSQALVSSSNNILIAIVQGAQSTETSKAVRLAALNALADSLIFIKNNMEREGERNYLMQVVCEATQAEDIEVQAAAFGCLCKIMSLYYTFMKPYMEQALYALTIATMKSPNDKVASMTVEFWSTICEEEIDIAYELAQFPQSPLQSYNFALSSIKDVVPNLLNLLTRQNEDPEDDDWNVSMSAGACLQLFAQNCGNHILEPVLEFVEQNITADNWRNREAAVMAFGSIMDGPDKVQRTYYVHQALPSILNLMNDQSLQVKETTAWCIGRIADSVAESIDPQQHLPGVVQACLIGLQDHPKVATNCSWTIINLVEQLAEATPSPIYNFYPALVDGLIGAANRIDNEFNARASAFSALTTMVEYATDTVAETSASISTFVMDKLGQTMSVDENQLTLEDAQSLQELQSNILTVLAAVIRKSPSSVEPVADMLMGLFFRLLEKKDSAFIEDDVFYAISALAASLGKGFEKYLETFSPYLLKALNQVDSPVSITAVGFIADISNSLEEDFRRYSDAMMNVLAQMISNPNARRELKPAVLSVFGDIASNIGADFIPYLNDIMALCVAAQNTKPENGTLEALDYQIKVLEAVLDAYVGIVAGLHDKPEALFPYVGTIFQFIAQVAEDPQLYSEDATSRAAVGLIGDIAAMFPDGSIKQFYGQDWVIDYIKRTRSGQLFSQATKDTARWAREQQKRQLSL
- binding result (His6-Avitag-MBP-Nup116): binds

B6: GST-Nup100(1-610) (domain or fragment, S. cerevisiae, UniProt Q02629 1-610, looked up)
chain: MFGNNRPMFGGSNLSFGSNTSSFGGQQSQQPNSLFGNSNNNNNSTSNNAQSGFGGFTSAAGSNSNSLFGNNNTQNNGAFGQSMGATQNSPFGSLNSSNASNGNTFGGSSSMGSFGGNTNNAFNNNSNSTNSPFGFNKPNTGGTLFGSQNNNSAGTSSLFGGQSTSTTGTFGNTGSSFGTGLNGNGSNIFGAGNNSQSNTTGSLFGNQQSSAFGTNNQQGSLFGQQSQNTNNAFGNQNQLGGSSFGSKPVGSGSLFGQSNNTLGNTTNNRNGLFGQMNSSNQGSSNSGLFGQNSMNSSTQGVFGQNNNQMQINGNNNNSLFGKANTFSNSASGGLFGQNNQQQGSGLFGQNSQTSGSSGLFGQNNQKQPNTFTQSNTGIGLFGQNNNQQQQSTGLFGAKPAGTTGSLFGGNSSTQPNSLFGTTNVPTSNTQSQQGNSLFGATKLTNMPFGGNPTANQSGSGNSLFGTKPASTTGSLFGNNTASTTVPSTNGLFGNNANNSTSTTNTGLFGAKPDSQSKPALGGGLFGNSNSNSSTIGQNKPVFGGTTQNTGLFGATGTNSSAVGSTGKLFGQNNNTLNVGTQNVPPVNNTTQNALLGTTAVPSLQQAPVTN
- binding result [1]: binds

Next, values leading:

- binding result [1]: binds
B4: GST-Nup116(348-458) (domain or fragment, S. cerevisiae, UniProt Q02630 348-458, looked up)
chain: GALFGAKPASGGLFGQSAGSKAFGMNTNPTGTTGGLFGQTNQQQSGGGLFGQQQNSNAGGLFGQNNQSQNQSGLFGQQNSSNAFGQPQQQGGLFGSKPAGGLFGQQQGAST

- binding result (His6-Avitag-MBP-Nup116): binds
B5: Nup170(980-1502) (domain or fragment, S. cerevisiae, UniProt P38181 980-1502, looked up)
chain: SIEYTATALQERCGSFCSASDILGFRAIEHLRRAKEIGLRNYDSLNYHLKNATALLEQIVDDLSIEKLKEAVSMMLSVNYYPKSIEFLLNIANSMDKGKLACQYVANGFLENDDRKQYYDKRILVYDLVFDTLIKVDELAEKKQSSKTQNQISISNDDEVKLRQKSYEAALKYNDRLFHYHMYDWLVSQNREEKLLDIETPFILPYLMEKAGSSLKISNILWVYYSRRSKFFESAEILYRLATSNFDITLFERIEFLSRANGFCNSVSPLSQKQRIVQLASRIQDACEVAGIQGDILSLVYTDARIDSAIKDELIKTLDGKILSTSELFNDFAVPLSYHEIALFIFKIADFRDHEVIMAKWDELFQSLRMEFNNTGKKEDSMNFINLLSNVLIKIGKNVQDSEFIFPIFELFPIVCNFFYETLPKEHIVSGSIVSIFITAGVSFNKMYYILKELIETSDSDNSVFNKEMTWLIHEWYKSDRKFRDIISYNDIIHLKEYKIDNDPIEKYVKNSGNNLGICFYKE

- binding result [1]: binds
B7: GST-Nup100(1-307) (domain or fragment, S. cerevisiae, UniProt Q02629 1-307, looked up)
chain: MFGNNRPMFGGSNLSFGSNTSSFGGQQSQQPNSLFGNSNNNNNSTSNNAQSGFGGFTSAAGSNSNSLFGNNNTQNNGAFGQSMGATQNSPFGSLNSSNASNGNTFGGSSSMGSFGGNTNNAFNNNSNSTNSPFGFNKPNTGGTLFGSQNNNSAGTSSLFGGQSTSTTGTFGNTGSSFGTGLNGNGSNIFGAGNNSQSNTTGSLFGNQQSSAFGTNNQQGSLFGQQSQNTNNAFGNQNQLGGSSFGSKPVGSGSLFGQSNNTLGNTTNNRNGLFGQMNSSNQGSSNSGLFGQNSMNSSTQGVFGQNNN
